Measured values published in ChEMBL document CHEMBL1147688, “Development of a dual fluorogenic and chromogenic dipeptidyl peptidase IV substrate” (Bioorg Med Chem Lett, 2006).

Substrate: NCC(=O)N1CCC[C@H]1C(=O)NCC(=O)N1CCC[C@H]1C(=O)Nc1cc2oc3cc(=[N+](CCCS(=O)(=O)O)CCCS(=O)(=O)O)ccc-3nc2c2ccccc12
Test: Affinity for DPP4
Details: Homo sapiens

B1: Dipeptidyl peptidase 4 (Homo sapiens), P27487 (protein)
chain: MKTPWKVLLGLLGAAALVTIITVPVVLLNKGTDDATADSRKTYTLTDYLKNTYRLKLYSLRWISDHEYLYKQENNILVFNAEYGNSSVFLENSTFDEFGHSINDYSISPDGQFILLEYNYVKQWRHSYTASYDIYDLNKRQLITEERIPNNTQWVTWSPVGHKLAYVWNNDIYVKIEPNLPSYRITWTGKEDIIYNGITDWVYEEEVFSAYSALWWSPNGTFLAYAQFNDTEVPLIEYSFYSDESLQYPKTVRVPYPKAGAVNPTVKFFVVNTDSLSSVTNATSIQITAPASMLIGDHYLCDVTWATQERISLQWLRRIQNYSVMDICDYDESSGRWNCLVARQHIEMSTTGWVGRFRPSEPHFTLDGNSFYKIISNEEGYRHICYFQIDKKDCTFITKGTWEVIGIEALTSDYLYYISNEYKGMPGGRNLYKIQLSDYTKVTCLSCELNPERCQYYSVSFSKEAKYYQLRCSGPGLPLYTLHSSVNDKGLRVLEDNSALDKMLQNVQMPSKKLDFIILNETKFWYQMILPPHFDKSKKYPLLLDVYAGPCSQKADTVFRLNWATYLASTENIIVASFDGRGSGYQGDKIMHAINRRLGTFEVEDQIEAARQFSKMGFVDNKRIAIWGWSYGGYVTSMVLGSGSGVFKCGIAVAPVSRWEYYDSVYTERYMGLPTPEDNLDHYRNSTVMSRAENFKQVEYLLIHGTADDNVHFQQSAQISKALVDVGVDFQAMWYTDEDHGIASSTAHQHIYTHMSHFIKQCFSLP
  Km: 56 µM
